T1: Recombinant murine full-length adiponectin (murine, UniProt Q60994 18-247)
T1 construct: also called fADPN; source: bought: Biovender Laboratory Medicine, Inc
T1 sequence (looked up): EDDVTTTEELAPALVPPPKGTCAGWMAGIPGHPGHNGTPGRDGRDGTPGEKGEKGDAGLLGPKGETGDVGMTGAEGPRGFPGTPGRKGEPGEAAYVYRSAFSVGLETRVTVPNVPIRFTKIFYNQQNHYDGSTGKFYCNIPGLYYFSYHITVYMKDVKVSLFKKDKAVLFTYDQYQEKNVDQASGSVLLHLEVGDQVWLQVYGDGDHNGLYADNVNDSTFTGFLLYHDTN

B1: Recombinant human platelet-derived growth factor-BB (PDGF-BB) (ligand, UniProt P01127 82-190, looked up)
chain: SLGSLTIAEPAMIAECKTRTEVFEISRRLIDRTNANFLVWPPCVEVQRCSGCCNNRNVQCRPTQVQLRPVQVRKIEIVRKKPIFKKATVTLEDHLACKCETVAAARPVT
notes: PDGF B chain, human, recombinant; The two copies follow from the printed name BB; source: bought: Wako Pure Chemical
B2: Nerve growth factor β (NGFβ) from mouse submaxillary glands (ligand, UniProt P01139 122-241, looked up)
chain: SSTHPVFHMGEFSVCDSVSVWVGDKTTATDIKGKEVTVLAEVNINNSVFRQYFFETKCRASNPVESGCRGIDSKHWNSYCTTTHTFVKALTTDEKQAAWRFIRIDTACVCVLSRKATRRG
notes: beta-nerve growth factor, mouse, the beta chain from submaxillary glands; The same protein was also tested after boiling (denatured), as a control; source: from mouse submaxillary glands; bought: Alomone Labs

Columns and labels:
[1] = molecular target: Secreted protein, acidic and rich in cysteine (SPARC) (UniProt P09486); assay: SPR; BIAcore X; SPARC immobilised on CM5 chip (3574 RU); growth factors as analytes in HBS-EP (10 mM HEPES, 150 mM NaCl, 0.005% Surfactant P20, pH 7.4), 37 °C, 20 µL/min, 105 s association, 120 s dissociation
Chain of Secreted protein, acidic and rich in cysteine (SPARC) (P09486 18-303): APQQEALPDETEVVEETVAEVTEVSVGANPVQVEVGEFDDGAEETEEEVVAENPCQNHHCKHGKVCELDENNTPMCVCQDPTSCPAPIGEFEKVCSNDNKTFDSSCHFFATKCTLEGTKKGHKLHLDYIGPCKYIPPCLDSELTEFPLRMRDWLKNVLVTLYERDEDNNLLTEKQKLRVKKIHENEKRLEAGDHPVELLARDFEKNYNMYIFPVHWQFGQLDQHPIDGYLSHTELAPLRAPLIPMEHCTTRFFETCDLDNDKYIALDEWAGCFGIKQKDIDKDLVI

[2] = molecular target: Recombinant murine globular adiponectin (murine); assay: SPR; BIAcore X; globular adiponectin immobilised on CM5 chip (12707 RU); growth factors as analytes in HBS-EP pH 7.4, 37 °C, 20 µL/min, 105 s association, 120 s dissociation
[3] = molecular target: T1, Recombinant murine full-length …; assay: SPR; BIAcore X; full length adiponectin immobilised on CM5 chip (2025 RU); growth factors as analytes in HBS-EP pH 7.4, 37 °C, 20 µL/min, 105 s association, 120 s dissociation; conditions: both partners purified

Molecule | Kd [1] [nM] | koff [1] [s⁻¹] | kon [1] [M⁻¹ s⁻¹] | Kd [2] [nM] | koff [2] [s⁻¹] | kon [2] [M⁻¹ s⁻¹] | Kd [3] [nM] | koff [3] [s⁻¹] | kon [3] [M⁻¹ s⁻¹]
Recombinant human vascular endothelial growth factor VEGF-165 (ligand) | 54.4 | 0.00413 | 75800 |  |  |  |  |  | 
Recombinant human transforming growth factor β1 (TGFβ1) (from UniProt P01137 279-390) (ligand) | 24300 | 0.0192 | 790 |  |  |  |  |  | 
Recombinant human basic fibroblast growth factor (FGF2) (from UniProt P09038 143-288) (ligand) | 14400 | 0.00195 | 135 |  |  |  |  |  | 
B1 | 24.3 | 0.000903 | 37100 | 70.4 | 0.00738 | 105000 | 24.5 | 2.82e-05 | 1150
B2 | 59.4 | 0.011 | 186000 | 1260 | 0.0145 | 11500 | 103 | 0.00597 | 57600
